The target in this assay is monomeric (SARS-CoV-2 S ectodomain monomer) (SARS-CoV-2). The experiment in a line: ELISA, coated monomeric S ectodomain [cont'd].

B1: MnC4t1p1_A10 (antibody, V domains shown)
VH: QLQVQESGPGLVKPSETLSLTCTVSGASISSNHYFWGWIRQPPGKGLAWIGSMHYSGSTYYNPSLKSRVTISVDTSKNQLSLKLSSVTAADTAVYYCARGVNYYDRNGYYRNDGFDIRGQGTMVTVSS
VL: DIQMTQSPSSLSASVGDRVTITCRASQGIRNDLGWYEQKPGKAPKRLIYAASSLESGVPSRFSGSGSGTEFTLTISSLQPEDFATYYCLQHNTYPFTFGPGTRVDIK
Consider B1, for which the EC50 is less than 100 µg/mL.

B2: MnC4t2p1_F5 (antibody, V domains shown)
VH: QLQVQESGPGLVKPSETLSLTCTVSGASISSNHYFWGWIRQPPGKGLAWIGSMHYSGSTYYNPSLKSRVTISVDTSKNQLSLKLSSVTAADTAVYYCARGVNYYDRNGYYRNDGFDIRGQGTMVTVSS
VL: DIQMTQSPSSLSASVGDRVTITCRASQGIRNDLGWYEQKPGKAPKRLIYAASSLESGVPSRFSGSGSGTEFTLTISSLQPEDFATYYCLQHNTYPFTFGPGTRVDIK
B2 yielded an EC50 of less than 100 µg/mL.

B3: MnC4t2p1_D10 (antibody, V domains shown)
VH: QLQVQESGPGLVKPSETLSLTCTVSGASISSNHYFWGWIRQPPGKGLAWIGSMHYSGSTYYNPSLKSRVTISVDTSKNQLSLKLSSVTAADTAVYYCARGVNYYDRNGYYRNDGFDIRGQGTMVTVSS
VL: DIQMTQSPSSLSASVGDRVTITCRASQGIRNDLGWYEQKPGKAPKRLIYAASSLESGVPSRFSGSGSGTEFTLTISSLQPEDFATYYCLQHNTYPFTFGPGTRVDIK
B3 returned an EC50 of less than 100 µg/mL.

These data come from patent publication US20210371503A1.
